In US20180258163A1 (Chugai, published 2018):

Columns and labels:
soluble human FcγRIIb [1] = target: T1, soluble human FcγRIIb (human, UniProt P31994 43-217, limits assumed); test: SPR, Ab-IgE complex over captured hFcγRIIb, pH 7.4, 25C
T1 construct: soluble His-tagged form; also called hFcγRIIb
T1 sequence (looked up): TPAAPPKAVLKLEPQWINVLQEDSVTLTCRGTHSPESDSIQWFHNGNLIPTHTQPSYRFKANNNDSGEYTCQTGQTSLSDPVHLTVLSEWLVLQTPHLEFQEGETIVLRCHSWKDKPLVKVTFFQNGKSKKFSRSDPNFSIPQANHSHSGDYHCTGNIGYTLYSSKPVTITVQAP
Description: Fc region variant-containing antibody binding assays between soluble human FcγRIIb (a.k.a. “hFcγRIIb”) and antigen-antibody complexes were performed using BIACORE® T200 (GE Healthcare). Soluble hFcγRIIb was produced in the form of a His-tagged molecule using methods known in the art. An appropriate amount of an anti-His antibody was fixed onto Sensor chip CM5 (GE Healthcare) by the amine coupling method using a His capture kit (GE Healthcare) to capture hFcγRIIb. Next, an antibody-antigen complex and a running buffer (as a reference solution) was injected, and interaction was allowed to take place with the hFcγRIIb captured onto the sensor chip. 20 mM N-(2-Acetamido)-2-aminoethanesulfonic acid, 150 mM NaCl, 1.2 mM CaCl₂, and 0.05% (w/v) Tween 20 at pH 7.4 was used as the running buffer, and the respective buffer was also used to dilute the soluble hFcγRIIb. To regenerate the sensor chip, 10 mM glycine-HCl at pH 1.5 was used. All measurements were carried out at 25° C. Analyses were performed based on binding (RU) calculated from sensorgrains obtained by the measurements, and relative values when the binding amount of P600 was defined as 1.00 are shown. To calculate the parameters, the BIACORE® T100 Evaluation Software (GE Healthcare) was used.

soluble human FcγRIIb [2] = target: T1, soluble human FcγRIIb; test: as above; remark: listed apart in the source
Description: Regarding the produced Fc region variant-containing antibodies, binding assays between soluble human FcγRIIb and antigen-antibody complexes were performed using BIACORE T200 (GE Healthcare). Soluble human FcγRIIb (NCBI accession NM_004001.3) was produced in the form of a His-tagged molecule by a method known in the art. An appropriate amount of an anti-His antibody was fixed onto Sensor chip CM5 (GE Healthcare) by the amine coupling method using a His capture kit (GE Healthcare) to capture human FcγRIIb. Next, an antibody-antigen complex and a running buffer (as a reference solution) were injected, and interaction was allowed to take place with the human FcγRIIb captured onto the sensor chip. 20 mM N-(2-Acetamido)-2-aminoethanesulfonic acid, 150 mM NaCl, 1.2 mM CaCl₂, and 0.05% (w/v) Tween 20 at pH 7.4 was used as the running buffer, and the respective buffer was also used to dilute the soluble human FcγRIIb. To regenerate the sensor chip, 10 mM glycine-HCl at pH 1.5 was used. All measurements were carried out at 25° C. Analyses were performed based on binding (RU) calculated from sensorgrams obtained by the measurements, and relative values when the binding amount of Ab1H/Ab1L (original Ab1) was defined as 1.00 are shown. To calculate the parameters, the BIACORE T100 Evaluation Software (GE Healthcare) was used.

Binder	relative binding (RU), P600=1.00 (soluble human FcγRIIb [1])	BIACORE fold (relative binding, original Ab1=1.00) (soluble human FcγRIIb [2])
Ab1H-P939/Ab1L (antibody, human IgG1, kappa, name in EU numbering, copies: 2 + 2) heavy: QVQLVESGGGLVQPGGSLRLSCAASGFTLSNHDMTWVRQAPGKGLEYVSIINTYGNHWYANWASGRFTISRDNSKNTVYLQIDSLRAEDTATYYCARETHHGSSGIDHWGQGTLVTVSSASTKGPSVFPLAPSSKSTSGGTAALGCLVKDYFPEPVTVSWNSGALTSGVHTFPAVLQSSGLYSLSSVVTVPSSSLGTQTYICNVNHKPSNTKVDKKVEPKSCDKTHTCPPCPAPELLGGDSVFLFPPKPKDTLMISRTPEVTCVVVDVSHERPEVKFNWYVDGVEVHNAKTKPREEQYNATYRVVSVLTVLHQDWLNGKEYKCKVSNKALPAPIEKTISKAKGQPREPQVYTLPPSREEMTKNQVSLTCLVKGFYPSDIAVEWESNGQPENNYKTTPPVLDSDGSFFLYSKLTVDKSRWQQGNVFSCSVMHEALHNHYTQKSLSLSP light: DIQMTQSPSSVSASVGDRVTITCQASESIYSGLAWYQQKPGQPPKLLIYDHSTLASGVPSRFSGSGSGTEYALTISSLQPEDFATYYCQHADYAHHSDNVFGGGTKVEIKRTVAAPSVFIFPPSDEQLKSGTASVVCLLNNFYPREAKVQWKVDNALQSGNSQESVTEQDSKDSTYSLSSTLTLSKADYEKHKVYACEVTHQGLSSPVTKSFNRGEC	-0.07 fold	
Ab1H-P940/Ab1L (antibody, human IgG1, kappa, name in EU numbering, copies: 2 + 2) heavy: QVQLVESGGGLVQPGGSLRLSCAASGFTLSNHDMTWVRQAPGKGLEYVSIINTYGNHWYANWASGRFTISRDNSKNTVYLQIDSLRAEDTATYYCARETHHGSSGIDHWGQGTLVTVSSASTKGPSVFPLAPSSKSTSGGTAALGCLVKDYFPEPVTVSWNSGALTSGVHTFPAVLQSSGLYSLSSVVTVPSSSLGTQTYICNVNHKPSNTKVDKKVEPKSCDKTHTCPPCPAPELLGGDSVFLFPPKPKDTLMISRTPEVTCVVVDVSHRDPEVKFNWYVDGVEVHNAKTKPREEQYNATYRVVSVLTVLHQDWLNGKEYKCKVSNKALPAPIEKTISKAKGQPREPQVYTLPPSREEMTKNQVSLTCLVKGFYPSDIAVEWESNGQPENNYKTTPPVLDSDGSFFLYSKLTVDKSRWQQGNVFSCSVMHEALHNHYTQKSLSLSP light: DIQMTQSPSSVSASVGDRVTITCQASESIYSGLAWYQQKPGQPPKLLIYDHSTLASGVPSRFSGSGSGTEYALTISSLQPEDFATYYCQHADYAHHSDNVFGGGTKVEIKRTVAAPSVFIFPPSDEQLKSGTASVVCLLNNFYPREAKVQWKVDNALQSGNSQESVTEQDSKDSTYSLSSTLTLSKADYEKHKVYACEVTHQGLSSPVTKSFNRGEC	-0.05 fold	
Ab1H-P941/Ab1L (antibody, human IgG1, kappa, name in EU numbering, copies: 2 + 2) heavy: QVQLVESGGGLVQPGGSLRLSCAASGFTLSNHDMTWVRQAPGKGLEYVSIINTYGNHWYANWASGRFTISRDNSKNTVYLQIDSLRAEDTATYYCARETHHGSSGIDHWGQGTLVTVSSASTKGPSVFPLAPSSKSTSGGTAALGCLVKDYFPEPVTVSWNSGALTSGVHTFPAVLQSSGLYSLSSVVTVPSSSLGTQTYICNVNHKPSNTKVDKKVEPKSCDKTHTCPPCPAPELLGGDSVFLFPPKPKDTLMISRTPEVTCVVVDVSREDPEVKFNWYVDGVEVHNAKTKPREEQYNATYRVVSVLTVLHQDWLNGKEYKCKVSNKALPAPIEKTISKAKGQPREPQVYTLPPSREEMTKNQVSLTCLVKGFYPSDIAVEWESNGQPENNYKTTPPVLDSDGSFFLYSKLTVDKSRWQQGNVFSCSVMHEALHNHYTQKSLSLSP light: DIQMTQSPSSVSASVGDRVTITCQASESIYSGLAWYQQKPGQPPKLLIYDHSTLASGVPSRFSGSGSGTEYALTISSLQPEDFATYYCQHADYAHHSDNVFGGGTKVEIKRTVAAPSVFIFPPSDEQLKSGTASVVCLLNNFYPREAKVQWKVDNALQSGNSQESVTEQDSKDSTYSLSSTLTLSKADYEKHKVYACEVTHQGLSSPVTKSFNRGEC	0.47 fold	
Ab1H/Ab1L001 (antibody, human IgG1, kappa, light chain = Ab1L with G16K (Kabat); also called Ab1L001T; copies: 2 + 2) heavy: not shown light: DIQMTQSPSSVSASVKDRVTITCQASESIYSGLAWYQQKPGQPPKLLIYDHSTLASGVPSRFSGSGSGTEYALTISSLQPEDFATYYCQHADYAHHSDNVFGGGTKVEIKRTVAAPSVFIFPPSDEQLKSGTASVVCLLNNFYPREAKVQWKVDNALQSGNSQESVTEQDSKDSTYSLSSTLTLSKADYEKHKVYACEVTHQGLSSPVTKSFNRGEC		1.03 fold
Ab1H/Ab1L002 (antibody, human IgG1, kappa, copies: 2 + 2) heavy: not shown light: DIQMTQSPSSVSASVGDRVTITCRASQSIYSGLAWYQQKPGQPPKLLIYDHSTLASGVPSRFSGSGSGTEYALTISSLQPEDFATYYCQHADYAHHSDNVFGGGTKVEIKRTVAAPSVFIFPPSDEQLKSGTASVVCLLNNFYPREAKVQWKVDNALQSGNSQESVTEQDSKDSTYSLSSTLTLSKADYEKHKVYACEVTHQGLSSPVTKSFNRGEC		1.03 fold
Ab1H/Ab1L003 (antibody, human IgG1, kappa, copies: 2 + 2) heavy: not shown light: DIQMTQSPSSVSASVGDRVTITCRASRSIYSGLAWYQQKPGQPPKLLIYDHSTLASGVPSRFSGSGSGTEYALTISSLQPEDFATYYCQHADYAHHSDNVFGGGTKVEIKRTVAAPSVFIFPPSDEQLKSGTASVVCLLNNFYPREAKVQWKVDNALQSGNSQESVTEQDSKDSTYSLSSTLTLSKADYEKHKVYACEVTHQGLSSPVTKSFNRGEC		1.09 fold
Ab1H/Ab1L004 (antibody, human IgG1, kappa, copies: 2 + 2) heavy: not shown light: DIQMTQSPSSVSASVGDRVTITCKASKSIYSGLAWYQQKPGQPPKLLIYDHSTLASGVPSRFSGSGSGTEYALTISSLQPEDFATYYCQHADYAHHSDNVFGGGTKVEIKRTVAAPSVFIFPPSDEQLKSGTASVVCLLNNFYPREAKVQWKVDNALQSGNSQESVTEQDSKDSTYSLSSTLTLSKADYEKHKVYACEVTHQGLSSPVTKSFNRGEC		1.01 fold
Ab1H/Ab1L005 (antibody, human IgG1, kappa, '526K' read as S26K; copies: 2 + 2) heavy: not shown light: DIQMTQSPSSVSASVGDRVTITCQKKESIYSGLAWYQQKPGQPPKLLIYDHSTLASGVPSRFSGSGSGTEYALTISSLQPEDFATYYCQHADYAHHSDNVFGGGTKVEIKRTVAAPSVFIFPPSDEQLKSGTASVVCLLNNFYPREAKVQWKVDNALQSGNSQESVTEQDSKDSTYSLSSTLTLSKADYEKHKVYACEVTHQGLSSPVTKSFNRGEC		0.84 fold
Ab1H/Ab1L006 (antibody, human IgG1, kappa, copies: 2 + 2) heavy: not shown light: DIQMTQSPSSVSASVGDRVTITCQRRESIYSGLAWYQQKPGQPPKLLIYDHSTLASGVPSRFSGSGSGTEYALTISSLQPEDFATYYCQHADYAHHSDNVFGGGTKVEIKRTVAAPSVFIFPPSDEQLKSGTASVVCLLNNFYPREAKVQWKVDNALQSGNSQESVTEQDSKDSTYSLSSTLTLSKADYEKHKVYACEVTHQGLSSPVTKSFNRGEC		1.18 fold
Ab1H/Ab1L007 (antibody, human IgG1, kappa, copies: 2 + 2) heavy: not shown light: DIQMTQSPSSVSASVGDRVTITCQASESIYSGLAWYRQKPGQPPKLLIYDHSTLASGVPSRFSGSGSGTEYALTISSLQPEDFATYYCQHADYAHHSDNVFGGGTKVEIKRTVAAPSVFIFPPSDEQLKSGTASVVCLLNNFYPREAKVQWKVDNALQSGNSQESVTEQDSKDSTYSLSSTLTLSKADYEKHKVYACEVTHQGLSSPVTKSFNRGEC		1.06 fold
Ab1H/Ab1L008 (antibody, human IgG1, kappa, copies: 2 + 2) heavy: not shown light: DIQMTQSPSSVSASVGDRVTITCQASESIYSGLAWYQQKPRKPPKLLIYDHSTLASGVPSRFSGSGSGTEYALTISSLQPEDFATYYCQHADYAHHSDNVFGGGTKVEIKRTVAAPSVFIFPPSDEQLKSGTASVVCLLNNFYPREAKVQWKVDNALQSGNSQESVTEQDSKDSTYSLSSTLTLSKADYEKHKVYACEVTHQGLSSPVTKSFNRGEC		1.07 fold
Ab1H/Ab1L009 (antibody, human IgG1, kappa, copies: 2 + 2) heavy: not shown light: DIQMTQSPSSVSASVGDRVTITCQASESIYSGLAWYQQKPGQPPKRLIKDHSTLASGVPSRFSGSGSGTEYALTISSLQPEDFATYYCQHADYAHHSDNVFGGGTKVEIKRTVAAPSVFIFPPSDEQLKSGTASVVCLLNNFYPREAKVQWKVDNALQSGNSQESVTEQDSKDSTYSLSSTLTLSKADYEKHKVYACEVTHQGLSSPVTKSFNRGEC		-0.02 fold
Ab1H/Ab1L010 (antibody, human IgG1, kappa, copies: 2 + 2) heavy: not shown light: DIQMTQSPSSVSASVGDRVTITCQASESIYSGLAWYQQKPGQPPKLLIYDHRTLARGVPSRFSGSGSGTEYALTISSLQPEDFATYYCQHADYAHHSDNVFGGGTKVEIKRTVAAPSVFIFPPSDEQLKSGTASVVCLLNNFYPREAKVQWKVDNALQSGNSQESVTEQDSKDSTYSLSSTLTLSKADYEKHKVYACEVTHQGLSSPVTKSFNRGEC		0.98 fold
